One experiment has as its target T1, human IL-2Rβ (human, UniProt P14784 27-240, limits assumed).
T1 construct: also called hIL-2Rβ; IL-2 receptor beta
T1 sequence (looked up): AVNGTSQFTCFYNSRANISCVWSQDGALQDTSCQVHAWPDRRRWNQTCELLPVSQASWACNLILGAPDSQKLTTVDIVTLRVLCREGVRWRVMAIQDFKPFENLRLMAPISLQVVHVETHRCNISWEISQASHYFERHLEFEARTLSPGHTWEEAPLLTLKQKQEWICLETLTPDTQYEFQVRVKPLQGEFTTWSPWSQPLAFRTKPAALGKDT
The experiment is described as follows: SPR, fusion captured. How it is done: (§1) Anti-human Fc sensor chips were prepared at 25° C. with a running buffer of 10 mM HEPES, 150 mM NaCl, 0.05% (v/v) Tween-20, pH 7.4. All surfaces of a Biacore CM4 sensor chip were activated with a 1:1 (v/v) mixture of 400 mM EDC and 100 mM NHS for 7 minutes, at a flow rate of 10 μL/min. An anti-human Fc reagent (Goat anti-human IgG Fc-γ specific, SouthernBiotech, Birmingham, Ala., Catalog #2014-01) was diluted to 50 μg/mL in 10 mM sodium acetate (pH 4.5) and injected on all flow cells for 7 minutes at 20 μL/min. All flow cells were blocked with 100 mM ethylenediamine in 200 mM Borate buffer pH 8.5 for 7 minutes at 10 μL/min.
(§2) All protein interaction experiments were performed at 37° C. using a running buffer of 10 mM HEPES, 150 mM NaCl, 0.05% (v/v) Tween-20, pH 7.4, 1 mg/mL BSA. Anti-PD-1-hIL-15 fusion proteins were captured at 10 μg/mL at a flow rate of 10 μL/min for 2 minutes. Different fusion proteins were captured in flow cells 2, 3 and 4. No protein was captured onto flow cell 1 which was used as a reference surface. […] After each analyte injection, dissociation was monitored for 5 minutes followed by regeneration of all flow cells with three 60-second injections of 75 mM phosphoric acid. […] For kinetic analysis, the double-referenced sensorgrams were fit globally to a simple 1:1 Langmuir with mass transport binding model using Biacore T200 Evaluation Software version 2.0. For steady-state affinity analysis, the double-referenced equilibrium binding responses were fit with a 1:1 Langmuir steady-state model using Biacore T200 Evaluation Software version 2.0.
(In general: In SPR one partner is held on a chip, and binding of the other changes the refractive index at the surface.)

The target of a further experiment is T2, human IL-15Rα (human, UniProt Q13261 31-205, limits assumed).
T2 construct: also called hIL-15Rα; IL-15 receptor alpha
The experiment is described as follows: SPR 37C, fusion captured by anti-human Fc. How it is done:
as §1, §2

The term Kd denotes the concentration at which binding is half-saturated.

T2 sequence (Q13261 31-205 limits assumed): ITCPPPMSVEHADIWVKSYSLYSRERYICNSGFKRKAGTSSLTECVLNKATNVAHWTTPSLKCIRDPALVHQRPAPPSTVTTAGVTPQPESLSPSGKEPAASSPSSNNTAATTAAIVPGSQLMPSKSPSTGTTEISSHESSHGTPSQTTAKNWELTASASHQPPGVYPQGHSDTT

B1: xmPD-1-hIL15 V49R/E46G/E64Q/D30N/M109A (other)
heavy 1: HHHHHHHHGGGGSGSGGEVQLVESGGGLVKPGGSLELSCAASGFTFSSYWMSWVRQAPEKGLEWVAAISPSGGSTYYADSVKGRFTISRDNAKNTLFLQMTSLRSEDTAMYYCAKESWGAYYDLWGQGTTVTVSSASTKGPSVFPLAPCSRSTSESTAALGCLVKDYFPEPVTVSWNSGALTSGVHTFPAVLQSSGLYSLSSVVTVPSSNFGTQTYTCNVDHKPSNTKVDKTVERKCRVRCPRCPAPPVAGPSVFLFPPKPKDTLMISRTPEVTCVVVAVSHEDPEVQFNWYVDGVEVHNAKTKPREEQFNSTFRVVSVLTVVHQDWLNGKEYKCKVSNKGLPSSIEKTISKTKGQPREPQVYTLPPSREEMTKNQVSLTCLVKGFYPSDIAVEWESNGQPENNYKTTPPMLDSDGSFFLYSRLTVDKSRWQQGNVFSCSVMHEALHNHYTQKSLSLSPGK
heavy 2: EVQLVESGGGLVKPGGSLELSCAASGFTFSSYWMSWVRQAPEKGLEWVAAISPSGGSTYYADSVKGRFTISRDNAKNTLFLQMTSLRSEDTAMYYCAKESWGAYYDLWGQGTTVTVSSASTKGPSVFPLAPCSRSTSESTAALGCLVKDYFPEPVTVSWNSGALTSGVHTFPAVLQSSGLYSLSSVVTVPSSNFGTQTYTCNVDHKPSNTKVDKTVERKCEVECPECPAPPVAGPSVFLFPPKPKDTLMISRTPEVTCVVVAVSHEDPEVQFNWYVDGVEVHNAKTKPREEQFNSTFRVVSVLTVVHQDWLNGKEYKCKVSNKGLPSSIEKTISKTKGQPREPQVYTLPPSREEMTKNQVSLTCEVKGFYPSDIAVEWESNGQPENNYKTTPPMLDSDGSFFLYSKLTVDKSRWQQGNVFSCSVMHEALHNHYTQKSLSLSPGSGGGGGTSATATPGANWVNVISDLKKIEDLIQSMHIDATLYTESNVHPSCKVTAMKCFLLGLQRISLESGDASIHDTVQNLIILANNSLSSNGNVTESGCKECEELEEKNIKEFLQSFVHIVQAFINT
light: DIVMTQSPSSLSVSAGDKVTMSCRASQGISSWLAWYQQKPWQPPKLLIYKASTLESGVPDRFTGSGSGTDFTLTISSVQAEDLAVYYCQQSYSTPWTFGGGTKLEIKGTVAAPSVFIFPPSDEQLKSGTASVVCLLNNFYPREAKVQWKVDNALQSGNSQESVTEQDSKDSTYSLSSTLTLSKADYEKHKVYACEVTHQGLSSPVTKSFNRGEC
notes: not restated for this mutant
B1 showed a Kd in the experiment with human IL-2Rβ above 3000 nM. Moreover, the binding result with human IL-15Rα is listed as “no binding (tested: 3000 nM)”.

B2: xmPD-1-hIL15 V49R/E46G/N1G/N4Q/D30N (other)
heavy 1: EVQLVESGGGLVKPGGSLELSCAASGFTFSSYWMSWVRQAPEKGLEWVAAISPSGGSTYYADSVKGRFTISRDNAKNTLFLQMTSLRSEDTAMYYCAKESWGAYYDLWGQGTTVTVSSASTKGPSVFPLAPSSKSTSGGTAALGCLVKDYFPEPVTVSWNSGALTSGVHTFPAVLQSSGLYSLSSVVTVPSSSLGTQTYICNVNHKPSNTKVDKKVEPKSCDKTHTCPPCPAPEAAGAPSVFLFPPKPKDTLMISRTPEVTCVVVDVSHEDPEVKFNWYVDGVEVHNAKTKPREEQYNSTYRVVSVLTVLHQDWLNGKEYKCKVSNKALPAPIEKTISKAKGQPREPQVYTLPPCREEMTKNQVSLSCAVKGFYPSDIAVEWESNGQPENNYKTTPPVLDSDGSFFLVSKLTVDKSRWQQGNVFSCSVMHEALHNHYTQKSLSLSPGSGGGGSGGGGSGGGGGWVQVISDLKKIEDLIQSMHIDATLYTESNVHPSCKVTAMKCFLLGLQRISLESGDASIHDTVENLIILANNSLSSNGNVTESGCKECEELEEKNIKEFLQSFVHIVQMFINTS
heavy 2: EVQLVESGGGLVKPGGSLELSCAASGFTFSSYWMSWVRQAPEKGLEWVAAISPSGGSTYYADSVKGRFTISRDNAKNTLFLQMTSLRSEDTAMYYCAKESWGAYYDLWGQGTTVTVSSASTKGPSVFPLAPSSKSTSGGTAALGCLVKDYFPEPVTVSWNSGALTSGVHTFPAVLQSSGLYSLSSVVTVPSSSLGTQTYICNVNHKPSNTKVDKKVEPKSCDKTHTCPPCPAPEAAGAPSVFLFPPKPKDTLMISRTPEVTCVVVDVSHEDPEVKFNWYVDGVEVHNAKTKPREEQYNSTYRVVSVLTVLHQDWLNGKEYKCKVSNKALPAPIEKTISKAKGQPREPQVCTLPPSREEMTKNQVSLWCLVKGFYPSDIAVEWESNGQPENNYKTTPPVLDSDGSFFLYSKLTVDKSRWQQGNVFSCSVMHEALHNHYTQKSLSLSPGK
light: B1 light
As for B2, the Kd with human IL-2Rβ is above 1500 nM.

(Values after patent US20210324028A1 (Pfizer, published 2021).)
